Earlier results as cited in publication PMC10674744.

What was measured:
[1] = target: STRAD NES NES (Homo sapiens) (UniProt Q7RTN6)
[2] = target: PKI NES NES (Homo sapiens) (UniProt P61925)
[3] = target: Rev NES NES (Human immunodeficiency virus 1) (UniProt P04325)
[4] = target: SNUPN NES NES (Homo sapiens) (UniProt O95149)

## CRM1 (from UniProt O14980)
[1]
  Kd: 10.3 µM
[2]
  Kd: 0.034 µM
[3]
  Kd: 1.18 µM
[4]
  Kd: 12.5 µM
